Measured values from US12241094B2, “Phenazine degrading agents and related compositions, methods and systems for interfering with viability of bacteria” (priority 2016, dated 2025).

Columns and labels:
[1] = Storage stability of purified PodA30-162; assay type: physicochemical; conditions: 20 mM Tris, pH7.6, 4° C.; as long as tested
Protocol: Protein extraction and purification. Frozen cell pellets were thawed at room temperature and suspended in 25 mL wash buffer (200 mM KCl, 20 mM imidazole, Tris, pH 7.6). Cell suspensions were homogenized in an Emulsiflex device (Avestin). Cell debris was removed by centrifugation (Avanti J-25 centrifuge, J-series JA-25.50 rotor, Beckman-Coulter) at 50,000×g and supernatant was applied to a nickel GE Healthcare HisTrap HP 5 mL nickel column on a GE Healthcare ÄKTAxpress FPLC. All protein purification steps were carried out at room temperature. The column with bound protein was washed with wash buffer until the UV (280 nm) trace stabilized below 20 mAU. Proteins were eluted across a gradient of 20-500 mM imidazole applied over 10 column volumes. PYO demethylase activity generally eluted around 300 mM imidazole. Eluted protein was concentrated to ˜3 mL (Amicon Ultra-15 centrifugal filters, Ultracel 3K MWCO) and treated overnight with 1% wt/wt TEV protease (35) while dialyzing (Spectra/Por Biotech Dialysis membrane, MWCO: 3.5-5 kD) into buffer containing 200 mM KCl and 20 mM Tris, pH7.6 at 4 C. […] Protein quantification was carried out by Bradford assay (36) (Quick Start 1× Bradford Dye Reagent, Bio-Rad) using pre-diluted Bovine Serum Albumin standards (Thermo Scientific) to establish a standard curve. […]

[2] = tested on: P. aeruginosa planktonic culture; test: Phenazines in planktonic P. aeruginosa cultures (HPLC); assay type: cell-based
From the text: Product was cut with DpnI to remove WT vector, phosphorylated with T4 polynucleotide kinase, and ligated to generate a circular mutant protein expression construct. For D72N and Y156F mutants, DNA fragments encoding the mutation were synthesized (Integrated DNA Technologies) and cloned into pET-20b(+) as for the wild type sequence. Enzymes for cloning were purchased from New England Biolabs. Constructs were transferred to E. coli BL21(DE3) for expression. All mutations were confirmed by Sanger sequencing (Laragen and Retrogen). When necessary, 100 μg mL^−1 carbenicillin was included in all growth media to maintain selection for the plasmid. To measure the effect of PodA30-162 on phenazine production in planktonically grown P. aeruginosa, cultures were grown overnight in 5 mL volumes of tryptic soy broth (TSB) or succinate minimal medium (arginine medium recipe from Glasser et al., 2014 with 40 mM sodium succinate in place of arginine) (3) in the presence 1 μg mL^−1 PodA30-162. Cells were removed by centrifugation and supernatants were analyzed by HPLC as previously described (9). See below for a description of biofilm growth of P. aeruginosa PA14. To induce protein expression, an overnight culture was inoculated 1/1000 in Terrific Broth (BD Difco). Cultures were grown in baffled Erlenmeyer flasks (1 L culture per 3 L flask) at 37° C. with 150 rpm agitation in a shaking incubator (Innova 44 shaking incubator, New Brunswick). After 3-4 hours, the temperature was changed to 16° C. and cultures were induced with 50 μM (final concentration) IPTG and left to incubate overnight. Cells were then pelleted by centrifugation, flash frozen in liquid N2, and stored at −80° C. for up to 1 month before protein purification.

B1: PodA30-162: truncated pyocyanin demethylase encoded by MFORT_14352 of Mycobacterium fortuitum lacking N-terminal helix, SEQ ID NO: 2 (protein, listed as Mycobacterium fortuitum)
chain: MDGRGGRSTTEPVTMTLDVKNDQVAKHDFGKPGMDVGDMDIFSDILSVDGKQVGYDGGACFFTNVTPDNPMTYCELTIHLDAGEIFARSLTPHTLAPFTMAITGGTGEYANSKGELTVSGVATPDEKYELKLTKAENLYFQ
With B1 the “time stable with no apparent loss of activity” value [1] was ≥ 4 months, the total phenazine concentrations ([2]; TSB) was “remain constant” and the “enzyme stability in P. aeruginosa overnight culture” value ([2]; TSB, enzyme added at start of culture) was “remained stable throughout the incubation period”. The “effect on PYO in planktonic culture” value ([2]; rich and minimal medium, 1 μg mL^−1 PodA30-162) was “conversion of PYO to 1-OH-PHZ” and the phenazine production ([2]; tryptic soy broth, 24 hours) was “changes to the concentrations of all four phenazines”.
